# Publication PMC7351598
# Like-named read-outs stand apart in the source and are kept apart here.
# Legend:
# Experiment in all cases: MST
# [1] = target: 6xHis-MBP-SpyCas9(H840A) (Streptococcus pyogenes) (UniProt Q99ZW2)
# [2] = target: Cas9-gRNA prebound to AcrIIA2b.3 (Streptococcus pyogenes | not stated) (UniProt Q99ZW2)
# [3] = target: 6xHis-MBP-SpyCas9 (Streptococcus pyogenes) (UniProt Q99ZW2)
# [4] = target: 6xHis-MBP-SpyCas9(D10A) (Streptococcus pyogenes) (UniProt Q99ZW2)
# [5] = target: 6xHis-MBP-deadSpyCas9 (Streptococcus pyogenes) (UniProt Q99ZW2)
# [6] = target: 6xHis-MBP-SpyCas9 (Streptococcus pyogenes) (UniProt Q99ZW2); remark: listed apart in the source
Substance,Kd [1] [nM],Kd [2] [nM],Kd [3] [nM],Kd [4] [nM],Kd [5] [nM],Kd [6] [nM]
AcrIIA1 (natural protein),2000,24,23,38,905,31
AcrIIA2b.3 (natural protein),–,–,20,–,–,–
